Experimental findings from US20190062426A1 are described below.

This test deals with human CD30 (tumor necrosis factor receptor superfamily, member 8 (TNFRSF8)) (human) (UniProt P28908). Briefly: cell-based or functional assay.
UniProt P28908, sequence (P28908 19-595): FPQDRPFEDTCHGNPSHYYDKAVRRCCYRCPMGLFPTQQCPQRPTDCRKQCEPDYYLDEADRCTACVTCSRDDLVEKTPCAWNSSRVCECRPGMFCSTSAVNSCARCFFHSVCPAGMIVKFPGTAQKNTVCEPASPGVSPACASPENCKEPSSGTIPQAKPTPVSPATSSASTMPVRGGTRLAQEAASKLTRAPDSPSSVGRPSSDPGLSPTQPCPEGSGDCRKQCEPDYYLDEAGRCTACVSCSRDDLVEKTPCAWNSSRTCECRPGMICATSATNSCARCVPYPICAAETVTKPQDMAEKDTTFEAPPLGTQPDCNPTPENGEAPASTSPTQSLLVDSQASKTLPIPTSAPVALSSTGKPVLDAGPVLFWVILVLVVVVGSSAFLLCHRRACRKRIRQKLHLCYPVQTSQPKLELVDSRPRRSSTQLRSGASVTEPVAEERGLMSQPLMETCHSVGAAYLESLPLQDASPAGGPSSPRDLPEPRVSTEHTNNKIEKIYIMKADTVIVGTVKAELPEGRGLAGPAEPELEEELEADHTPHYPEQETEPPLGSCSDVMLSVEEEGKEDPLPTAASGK

Consider XmAb2513-28Z CAR, for which the CD107a degranulation, % CD8+CD107a+ cells after 4 h with CD30+ SUDHL-1 cells (% of live CD3+ lymphocytes) amounted to 7.72; the CD107a degranulation, % CD8-CD107a+ cells after 4 h with CD30+ SUDHL-1 cells (% of live CD3+ lymphocytes) is 1.86; the IFNγ released (ELISA) on co-culture with CD30+ HH cells came to 4700 pg/mL; the IFNγ released (ELISA) on co-culture with CD30+ SUDHL-1 cells stood at 2440 pg/mL. For the same molecule, the IFNγ released (ELISA) on co-culture with CD30-bv173 cells turned out to be 388 pg/mL.

On to 5F11-CD8BBZ CAR, for which the CD107a degranulation, % CD8+CD107a+ cells after 4 h with CD30-bv173 cells (% of live CD3+ lymphocytes) came out at 25.9; the CD107a degranulation, % CD8-CD107a+ cells after 4 h with CD30-bv173 cells (% of live CD3+ lymphocytes) worked out at 12.1; the antigen-specific IFNγ production on culture with CD30+ HH lymphoma cells came to 47700.

Regarding AC10-28Z CAR, the CD107a degranulation, % CD8+CD107a+ cells after 4 h with CD30+ SUDHL-1 cells (% of live CD3+ lymphocytes) turned out to be 6.18; the CD107a degranulation, % CD8-CD107a+ cells after 4 h with CD30+ SUDHL-1 cells (% of live CD3+ lymphocytes) was found to be 1.34; the IFNγ released (ELISA) on co-culture with CD30+ HH cells was 8140 pg/mL; the IFNγ released (ELISA) on co-culture with CD30+ SUDHL-1 cells came out at 4850 pg/mL. Further, the IFNγ released (ELISA) on co-culture with CD30-bv173 cells turned out to be 538 pg/mL.

Turning to 5F11-CD828Z CAR, the CD107a degranulation, % CD8+CD107a+ cells after 4 h with CD30-bv173 cells (% of live CD3+ lymphocytes) stood at 30; the CD107a degranulation, % CD8-CD107a+ cells after 4 h with CD30-bv173 cells (% of live CD3+ lymphocytes) turned out to be 11.6; the IFNγ released (ELISA) after overnight culture with CD30+ HDLM-2 cells was determined as 3010 pg/mL; the IFNγ released (ELISA) after overnight culture with CD30+ SUDHL-1 cells turned out to be 2300 pg/mL. In addition, the antigen-specific IFNγ production on culture with CD30+ HH lymphoma cells stood at 34300.

B1: 5F11-28Z CAR (protein)
chain: DIQMTQSPTSLSASVGDRVTITCRASQGISSWLTWYQQKPEKAPKSLIYAASSLQSGVPSRFSGSGSGTDFTLTISSLQPEDFATYYCQQYDSYPITFGQGTRLEIKGSTSGSGKPGSGEGSTKGQVQLQQWGAGLLKPSETLSLTCAVYGGSFSAYYWSWIRQPPGKGLEWIGDINHGGGTNYNPSLKSRVTISVDTSKNQFSLKLNSVTAADTAVYYCASLTAYWGQGSLVTVSSIEVMYPPPYLDNEKSNGTIIHVKGKHLCPSPLFPGPSKPFWVLVVVGGVLACYSLLVTVAFIIFWVRSKRSRLLHSDYMNMTPRRPGPTRKHYQPYAPPRDFAAYRSRVKFSRSADAPAYQQGQNQLYNELNLGRREEYDVLDKRRGRDPEMGGKPRRKNPQEGLYNELQKDKMAEAYSEIGMKGERRRGKGHDGLYQGLSTATKDTYDALHMQALPPR
B1 returned a CD107a degranulation, % CD8+CD107a+ cells after 4 h with CD30+ SUDHL-1 cells (% of live CD3+ lymphocytes) of 47.4; a CD107a degranulation, % CD8+CD107a+ cells after 4 h with CD30-bv173 cells (% of live CD3+ lymphocytes) of 39.5; a CD107a degranulation, % CD8-CD107a+ cells after 4 h with CD30+ SUDHL-1 cells (% of live CD3+ lymphocytes) of 4.32; a CD107a degranulation, % CD8-CD107a+ cells after 4 h with CD30-bv173 cells (% of live CD3+ lymphocytes) of 6.82. For the same molecule, the IFNγ released (ELISA) after overnight culture with CD30+ HDLM-2 cells was 3530 pg/mL, the IFNγ released (ELISA) after overnight culture with CD30+ SUDHL-1 cells was 3490 pg/mL, the IFNγ released (ELISA) on co-culture with CD30+ HH cells was 78600 pg/mL and the IFNγ released (ELISA) on co-culture with CD30+ SUDHL-1 cells was determined as 25500 pg/mL. Further, the IFNγ released (ELISA) on co-culture with CD30-bv173 cells was found to be 3780 pg/mL; the IFNγ released (ELISA) on overnight culture with CD30+ HH cells, 0 µg/mL soluble human CD30 protein added is 23000 pg/mL; the IFNγ released (ELISA) on overnight culture with CD30+ HH cells, 0.2 µg/mL soluble human CD30 protein added was found to be 18400 pg/mL; the IFNγ released (ELISA) on overnight culture with CD30+ HH cells, 1 µg/mL soluble human CD30 protein added stood at 19900 pg/mL. The IFNγ released (ELISA) on overnight culture with CD30+ HH cells, 5 µg/mL soluble human CD30 protein added was 18700 pg/mL and the antigen-specific IFNγ production on culture with CD30+ HH lymphoma cells came out at 127000.
